We go through three molecules from paper doi:10.1101/2022.06.26.497666 (bioRxiv, 2022).

In data set [1] the target is T1, NLRP1 (wild-type full-length human NLRP1) (human, UniProt Q9C000-1).
T1 sequence: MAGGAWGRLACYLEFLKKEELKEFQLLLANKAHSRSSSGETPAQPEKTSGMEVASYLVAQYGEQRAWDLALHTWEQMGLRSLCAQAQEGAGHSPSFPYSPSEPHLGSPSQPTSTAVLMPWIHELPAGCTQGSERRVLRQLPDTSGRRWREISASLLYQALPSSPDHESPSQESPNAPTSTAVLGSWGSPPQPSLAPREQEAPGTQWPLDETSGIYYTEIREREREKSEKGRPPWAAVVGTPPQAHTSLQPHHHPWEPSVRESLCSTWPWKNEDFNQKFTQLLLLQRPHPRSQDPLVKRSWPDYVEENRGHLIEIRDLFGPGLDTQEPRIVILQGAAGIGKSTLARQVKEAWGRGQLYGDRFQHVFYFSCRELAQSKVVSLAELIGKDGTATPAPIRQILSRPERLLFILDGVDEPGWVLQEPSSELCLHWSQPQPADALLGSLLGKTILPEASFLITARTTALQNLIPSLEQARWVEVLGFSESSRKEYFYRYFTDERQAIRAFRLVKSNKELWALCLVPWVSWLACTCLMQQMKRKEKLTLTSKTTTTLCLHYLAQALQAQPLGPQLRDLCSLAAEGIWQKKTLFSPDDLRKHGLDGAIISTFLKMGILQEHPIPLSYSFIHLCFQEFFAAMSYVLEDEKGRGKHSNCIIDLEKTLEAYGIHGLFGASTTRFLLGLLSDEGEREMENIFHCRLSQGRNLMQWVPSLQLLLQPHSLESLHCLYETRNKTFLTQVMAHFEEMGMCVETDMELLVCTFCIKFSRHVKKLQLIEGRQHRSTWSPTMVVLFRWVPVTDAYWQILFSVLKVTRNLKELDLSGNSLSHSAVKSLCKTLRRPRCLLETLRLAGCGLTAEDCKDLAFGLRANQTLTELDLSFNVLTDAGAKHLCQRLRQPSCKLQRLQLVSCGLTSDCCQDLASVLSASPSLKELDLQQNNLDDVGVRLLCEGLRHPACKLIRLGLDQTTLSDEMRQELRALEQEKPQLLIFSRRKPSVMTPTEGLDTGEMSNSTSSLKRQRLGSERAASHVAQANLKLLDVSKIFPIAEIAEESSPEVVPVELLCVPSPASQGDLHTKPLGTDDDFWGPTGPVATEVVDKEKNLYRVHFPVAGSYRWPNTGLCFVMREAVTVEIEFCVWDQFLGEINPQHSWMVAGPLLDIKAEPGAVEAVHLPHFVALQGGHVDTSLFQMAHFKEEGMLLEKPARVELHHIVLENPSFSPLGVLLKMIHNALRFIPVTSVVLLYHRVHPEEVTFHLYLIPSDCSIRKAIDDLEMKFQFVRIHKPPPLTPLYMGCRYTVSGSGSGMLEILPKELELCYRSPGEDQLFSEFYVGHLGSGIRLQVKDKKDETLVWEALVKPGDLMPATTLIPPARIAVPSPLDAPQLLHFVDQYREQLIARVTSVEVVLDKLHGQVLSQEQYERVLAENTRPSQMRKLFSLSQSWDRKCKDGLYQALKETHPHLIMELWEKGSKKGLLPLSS
Description: co-IP.

Data set [2] deals with the molecule itself. Description: SEC + other: negative-stain EM.

B1: CARD8-T60 isoform (full-length) (natural protein)
chain: MEKKECPEKSSSSEEELPRRDSGSSRNIDASKLIRLQGSRKLLVDNSIRELQYTKTGIFFQAEACVTNDTVYRELPCVSETLCDISHFFQEDDETEAEPLLFRAVPECQLSGGDIPSVSEEQESSEGQDSGDICSEENQIVSSYASKVCFEIEEDYKNRQFLGPEGNVDVELIDKSTNRYSVWFPTAGWYLWSATGLGFLVRDEVTVTIAFGSWSQHLALDLQHHEQWLVGGPLFDVTAEPEEAVAEIHLPHFISLQAGEVDVSWFLVAHFKNEGMVLEHPARVEPFYAVLESPSFSLMGILLRIASGTRLSIPITSNTLIYYHPHPEDIKFHLYLVPSDALLTKAIDDEEDRFHGVRLQTSPPMEPLNFGSSYIVSNSANLKVMPKELKLSYRSPGEIQHFSKFYAGQMKEPIQLEITEKRHGTLVWDTEVKPVDLQLVAASAPPPFSGAAFVKENHRQLQARMGDLKGVLDDLQDNEVLTENEKELVEQEKTRQSKNEALLSMVEKKGDLALDVLFRSISERDPYLVSYLRQQNL
On to B1, for which the binding result in data set [1] is on record as “binds”.

B2: MBP-NLRP1 NACHT-LRR R726W mutant (domain or fragment)
chain: GRPPWAAVVGTPPQAHTSLQPHHHPWEPSVRESLCSTWPWKNEDFNQKFTQLLLLQRPHPRSQDPLVKRSWPDYVEENRGHLIEIRDLFGPGLDTQEPRIVILQGAAGIGKSTLARQVKEAWGRGQLYGDRFQHVFYFSCRELAQSKVVSLAELIGKDGTATPAPIRQILSRPERLLFILDGVDEPGWVLQEPSSELCLHWSQPQPADALLGSLLGKTILPEASFLITARTTALQNLIPSLEQARWVEVLGFSESSRKEYFYRYFTDERQAIRAFRLVKSNKELWALCLVPWVSWLACTCLMQQMKRKEKLTLTSKTTTTLCLHYLAQALQAQPLGPQLRDLCSLAAEGIWQKKTLFSPDDLRKHGLDGAIISTFLKMGILQEHPIPLSYSFIHLCFQEFFAAMSYVLEDEKGRGKHSNCIIDLEKTLEAYGIHGLFGASTTRFLLGLLSDEGEREMENIFHCRLSQGRNLMQWVPSLQLLLQPHSLESLHCLYETWNKTFLTQVMAHFEEMGMCVETDMELLVCTFCIKFSRHVKKLQLIEGRQHRSTWSPTMVVLFRWVPVTDAYWQILFSVLKVTRNLKELDLSGNSLSHSAVKSLCKTLRRPRCLLETLRLAGCGLTAEDCKDLAFGLRANQTLTELDLSFNVLTDAGAKHLCQRLRQPSCKLQRLQLVSCGLTSDCCQDLASVLSASPSLKELDLQQNNLDDVGVRLLCEGLRHPACKLIRLGLDQTTLSDEMRQELRALEQEKPQLLIFSRRKPSVMTP
For the molecule B2, the binding result in data set [2] is given as “binds”.

B3: MBP-NLRP1 NACHT-LRR F787_R843del mutant (domain or fragment)
chain: GRPPWAAVVGTPPQAHTSLQPHHHPWEPSVRESLCSTWPWKNEDFNQKFTQLLLLQRPHPRSQDPLVKRSWPDYVEENRGHLIEIRDLFGPGLDTQEPRIVILQGAAGIGKSTLARQVKEAWGRGQLYGDRFQHVFYFSCRELAQSKVVSLAELIGKDGTATPAPIRQILSRPERLLFILDGVDEPGWVLQEPSSELCLHWSQPQPADALLGSLLGKTILPEASFLITARTTALQNLIPSLEQARWVEVLGFSESSRKEYFYRYFTDERQAIRAFRLVKSNKELWALCLVPWVSWLACTCLMQQMKRKEKLTLTSKTTTTLCLHYLAQALQAQPLGPQLRDLCSLAAEGIWQKKTLFSPDDLRKHGLDGAIISTFLKMGILQEHPIPLSYSFIHLCFQEFFAAMSYVLEDEKGRGKHSNCIIDLEKTLEAYGIHGLFGASTTRFLLGLLSDEGEREMENIFHCRLSQGRNLMQWVPSLQLLLQPHSLESLHCLYETRNKTFLTQVMAHFEEMGMCVETDMELLVCTFCIKFSRHVKKLQLIEGRQHRSTWSPTMVVLLAGCGLTAEDCKDLAFGLRANQTLTELDLSFNVLTDAGAKHLCQRLRQPSCKLQRLQLVSCGLTSDCCQDLASVLSASPSLKELDLQQNNLDDVGVRLLCEGLRHPACKLIRLGLDQTTLSDEMRQELRALEQEKPQLLIFSRRKPSVMTP
As to B3, the binding result in data set [2] was “binds”.
